Laboratory results published in PMC7337497 (The Journal of Cell Biology, 2020).

How the values were obtained:
[1] = target: T1, ATG12–ATG5-ATG16L1-GFP complex (E3-GFP) (human, UniProt O94817 1-140; Q9H1Y0 1-275; Q676U5-1 1-607, conjugated to a lysine residue in ATG5 (ATG12–ATG5 conjugate) | a lysine residue conjugated to ATG12); experiment: microscopy-based bead protein-protein interaction assay; RFP-Trap beads coated with mCherry-WIPI2d, mCherry-Atg21 or mCherry as baits, 5 µM E3-GFP as prey; 25 mM Hepes pH 7.5, 150 mM NaCl, 1 mM DTT; at least 30 min at RT (22°C), confocal imaging; conditions: both partners purified
T1 construct: ATG12, human; synthetic gene codon optimised for Sf9; conjugated to ATG5 by coexpressed ATG7 and ATG10; ATG5, human; ATG16L1 isoform β, human; Dimer with two copies of each subunit by static light scattering; no TEV cleavage is described for this complex; also called GFP-tagged E3; E3 complex; source: Sf9, coexpressed from one poly-cistronic construct with ATG7 and ATG10, purified (StrepTactin, …)
T1 sequence (O94817 whole entry, chain 1 of 3, canonical isoform): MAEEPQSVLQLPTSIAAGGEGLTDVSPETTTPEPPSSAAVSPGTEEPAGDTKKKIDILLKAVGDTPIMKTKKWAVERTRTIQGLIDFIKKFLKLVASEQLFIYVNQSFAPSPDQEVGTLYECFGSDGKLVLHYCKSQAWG
T1 sequence (Q9H1Y0 whole entry, chain 2 of 3, canonical isoform): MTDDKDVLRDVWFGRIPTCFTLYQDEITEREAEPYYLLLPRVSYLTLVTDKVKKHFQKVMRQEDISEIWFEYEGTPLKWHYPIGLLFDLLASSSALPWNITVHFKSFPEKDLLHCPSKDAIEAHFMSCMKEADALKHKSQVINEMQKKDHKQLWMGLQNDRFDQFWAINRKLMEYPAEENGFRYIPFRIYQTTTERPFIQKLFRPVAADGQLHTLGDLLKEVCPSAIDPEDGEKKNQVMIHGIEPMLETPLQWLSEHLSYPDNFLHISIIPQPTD
T1 sequence (Q676U5 whole entry, chain 3 of 3, canonical isoform): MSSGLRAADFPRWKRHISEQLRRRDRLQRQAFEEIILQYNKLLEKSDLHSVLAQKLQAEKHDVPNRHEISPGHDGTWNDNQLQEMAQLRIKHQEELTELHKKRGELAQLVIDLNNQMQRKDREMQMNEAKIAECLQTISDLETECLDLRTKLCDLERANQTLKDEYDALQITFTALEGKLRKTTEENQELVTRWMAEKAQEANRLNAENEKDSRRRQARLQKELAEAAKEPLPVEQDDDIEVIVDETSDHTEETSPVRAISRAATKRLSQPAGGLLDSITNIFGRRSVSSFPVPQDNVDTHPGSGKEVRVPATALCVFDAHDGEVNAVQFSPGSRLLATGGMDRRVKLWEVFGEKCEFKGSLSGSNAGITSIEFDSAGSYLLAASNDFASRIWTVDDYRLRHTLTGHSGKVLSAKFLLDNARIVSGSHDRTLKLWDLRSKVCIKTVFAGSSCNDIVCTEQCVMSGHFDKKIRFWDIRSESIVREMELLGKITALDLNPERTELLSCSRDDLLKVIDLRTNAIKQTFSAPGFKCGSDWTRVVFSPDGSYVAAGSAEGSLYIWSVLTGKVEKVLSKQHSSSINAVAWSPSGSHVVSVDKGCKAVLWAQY

[2] = target: T1, ATG12–ATG5-ATG16L1-GFP complex (E3-GFP); experiment: microscopy-based bead protein-protein interaction assay; 500 nM GST-mCherry-WIPI3 or GST-mCherry-WIPI4 and 100 nM E3-GFP with glutathione-coated polystyrene beads; 25 mM Hepes pH 7.5, 150 mM NaCl, 1 mM TCEP; 30 min RT, washed three times, confocal imaging; conditions: both partners purified

GST-mCherry-WIPI3, sequence (Q5MNZ6 whole entry, change not shown): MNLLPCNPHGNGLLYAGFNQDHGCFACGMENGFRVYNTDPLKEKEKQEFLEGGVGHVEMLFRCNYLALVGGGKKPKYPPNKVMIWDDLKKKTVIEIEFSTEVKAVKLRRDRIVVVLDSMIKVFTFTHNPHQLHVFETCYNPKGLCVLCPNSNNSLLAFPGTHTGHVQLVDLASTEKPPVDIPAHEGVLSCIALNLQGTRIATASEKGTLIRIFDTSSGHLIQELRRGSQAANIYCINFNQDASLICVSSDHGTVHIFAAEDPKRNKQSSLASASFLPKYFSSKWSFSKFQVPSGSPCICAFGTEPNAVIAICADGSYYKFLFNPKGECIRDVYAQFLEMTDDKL

| binding result [1] | binding result [2] | Binder |
| --- | --- | --- |
| binds |  | mCherry-Atg21 (natural protein, S. cerevisiae, UniProt Q02887 1-496, looked up, also called yeast Atg21; source: E. coli Rosetta pLysS, purified (Ni-NTA, TEV, Superdex 200); not shown: 6xHis, N-terminal, cleaved; mCherry, N-terminal, kept) MKVLQFNQDATCCVVAASSHQISIFNCDPFGKCFEIDTKNSKKKTSNNNGSASNSESRNNEESILITNGSRDRTDAEEEEDNEDNALVTGNILKEGEFVIEMLFSTSLIAIADRGQGLNKGKKLKIVNTKRKCTICEIVFPHEIVDVVMNRKRMCVLLESDQIFIYDISCMKPLETIDLWEDHYKRSQANSFSNASNTGTLEGDSANLNRVATNLLANATQKSVNGSNPSVRTRRNSLRSKIRPRMVLSNDDRSILCFTAYSSPKKNKPNSEALYDVVIYDTLNVTPVNYLNSVHKGNVACLAVSHDGKLLATASDKGTIIRVFHTGVDSDYMSSRSLFKEFRRGTRLCNLYQLAFDKSMTMIGCVGDTDTIHLFKLDDASNSLPGDNSSNGHWNEEEYILASNSNPSMGTPKEIPLSKPRIANYFSKKIKSSIPNQNLSRNFAYITVNESNRSCLGFPDEFPNQVYIASDDGTFSIYSIPSKPGECVLTKNNKFT |
|  | binds | GST-mCherry-WIPI3 (natural protein, WIPI3, human; synthetic gene; Construct GST-TEV-mCherry-WIPI3; held on glutathione beads in the assay; also called GST-mCherry–tagged WIPI3; source: HEK293 GnTi, transfected, purified; not shown: GST, N-terminal, kept; mCherry, N-terminal, kept) not shown |
